Biological target: the molecule itself
Test: dynamic light scattering; protein in solution, 10 µM, 25 mM Tris pH 7.4, 3% PEG 8000, NaCl as indicated (lower ionic strength); diameters modelled as Rayleigh spheres; monomers against higher ordered structures

B1: GFP-syt1 (80–142) (domain or fragment, UniProt P21707 80-142, looked up)
chain: KKCLFKKKNKKKGKEKGGKNAINMKDVKDLGKTMKDQALKDDDAETGLTDGEEKEEPKEEEKL
notes: synaptotagmin 1 (syt1), juxtamembrane linker, residues 80–142; also called GFP-tagged juxtamembrane linker (80–142); isolated juxtamembrane linker (residues 80–142); source: E. coli BL21(DE3), purified (Ni-NTA, eluted with 200 mM imidazole, dialysed); not shown: msGFP (no linker), N-terminal, kept
B1: binds.

From PMC10766989, “The juxtamembrane linker of synaptotagmin 1 regulates Ca^2+ binding via liquid-liquid phase separation” (Nature Communications, 2024)
